# Data from article PMC9544338, “Restoration of the GTPase activity and cellular interactions of Gαo mutants by Zn^2+ in GNAO1 encephalopathy models” (Science Advances, 2022).
# B1: His6-RGS19 (natural protein, UniProt P49795 1-217, looked up)
# chain: MPTPHEAEKQITGPEEADRPPSMSSHDTASPAAPSRNPCCLCWCCCCSCSWNQERRRAWQASRESKLQPLPSCEVCATPSPEEVQSWAQSFDKLMHSPAGRSVFRAFLRTEYSEENMLFWLACEELKAEANQHVVDEKARLIYEDYVSILSPKEVSLDSRVREGINKKMQEPSAHTFDDAQLQIYTLMHRDSYPRFLSSPTYRALLLQGPSQSSSEA
# notes: RGS19 (regulator of G protein signaling 19); plasmid previously described; source: N2a cells, transfected, in lysate
# Target: T1, Gαo-GFP (C-terminally tagged) wild type (human, UniProt P09471 1-354)
# T1 construct: Gαo (GNAO1); also called WT Gαo; source: N2a cells, transfected, in lysate; not shown: GFP, C-terminal, kept
# Assay: co-IP; N2a cells cotransfected with His6-RGS19 and Gαo-GFP (C-terminally tagged) variants, treated with 1 μM ZPT for 3 hours before IP of Gαo with a nanobody against GFP; Western blot; fold against DMSO-treated cells
# Settings: partners not purified
# T1 sequence (P09471 whole entry): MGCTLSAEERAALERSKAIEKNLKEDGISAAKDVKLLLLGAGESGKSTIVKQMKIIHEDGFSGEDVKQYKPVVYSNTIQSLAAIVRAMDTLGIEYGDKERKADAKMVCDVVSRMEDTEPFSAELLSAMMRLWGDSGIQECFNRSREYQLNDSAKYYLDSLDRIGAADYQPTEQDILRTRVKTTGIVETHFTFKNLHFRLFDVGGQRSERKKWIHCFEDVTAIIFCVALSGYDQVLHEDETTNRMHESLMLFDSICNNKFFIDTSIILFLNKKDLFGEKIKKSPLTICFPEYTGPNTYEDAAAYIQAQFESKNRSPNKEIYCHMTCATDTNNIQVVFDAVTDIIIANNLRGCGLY
binder,measurement,value
B1,fold increase of the interaction by ZPT over DMSO,~2 fold
